According to the Immune Epitope Database (IEDB):
One block for each sequence: values may come before it.

Experiments:
HLA-A*02:01 [1] = assay: IEDB peptide-MHC binding, purified MHC/competitive/fluorescence; ≥ and ≤ were set here for values at or beyond the usual limits of such assays
HLA-A*01:01 [2] = assay: as above
HLA-B*46:01 = assay: IEDB peptide-MHC binding, purified MHC/direct/fluorescence; filed as Kd, often an IC50 or EC50 that approximates it; ≥ and ≤ were set here for values at or beyond the usual limits of such assays
HLA-B*15:02 = assay: as above
HLA-B*35:01 = assay: as above; settings: source organism: Burkholderia mallei ATCC 23344
HLA-B*07:02 = assay: as above
HLA-B*15:01 [3] = assay: as above
HLA-A*02:01 [4] = assay: IEDB peptide-MHC binding, cellular MHC/competitive/fluorescence; ≥ and ≤ were set here for values at or beyond the usual limits of such assays
HLA-A*11:01 [5] = assay: IEDB peptide-MHC binding, purified MHC/competitive/fluorescence; ≥ and ≤ were set here for values at or beyond the usual limits of such assays; settings: source organism: Zaire ebolavirus
HLA-A*24:02 = assay: as above; settings: source organism: Zaire ebolavirus
HLA-A*03:01 [6] = assay: as above; settings: source organism: Zaire ebolavirus
HLA-B*15:01 [7] = assay: as above; settings: source organism: Zaire ebolavirus
HLA-A*02:01 [8] = assay: IEDB peptide-MHC binding, purified MHC/direct/fluorescence; filed as Kd, often an IC50 or EC50 that approximates it; ≥ and ≤ were set here for values at or beyond the usual limits of such assays; settings: source organism: Vibrio parahaemolyticus
HLA-A*26:01 = assay: as above; settings: source organism: Vibrio parahaemolyticus
HLA-A*11:01 [9] = assay: as above; settings: source organism: Vibrio parahaemolyticus
HLA-A*01:01 [10] = assay: as above
HLA-B*08:01 = assay: as above; settings: source organism: Vibrio parahaemolyticus
HLA-B*27:05 = assay: as above; settings: source organism: Vibrio parahaemolyticus
HLA-A*31:01 = assay: as above; settings: source organism: Vibrio parahaemolyticus
HLA-B*40:01 = assay: as above; settings: source organism: Vibrio parahaemolyticus
HLA-B*44:02 = assay: as above; settings: source organism: Vibrio parahaemolyticus
HLA-B*58:01 = assay: as above; settings: source organism: Vibrio parahaemolyticus
HLA-A*03:01 [11] = assay: as above; settings: source organism: Vibrio parahaemolyticus
HLA-A*69:01 = assay: as above; settings: source organism: Vibrio parahaemolyticus
HLA-B*15:42 = assay: IEDB peptide-MHC binding, purified MHC/competitive/fluorescence; filed as Kd, often an IC50 or EC50 that approximates it; ≥ and ≤ were set here for values at or beyond the usual limits of such assays; settings: source organism: Francisella tularensis subsp. tularensis FSC198
HLA-B*83:01 = assay: as above; settings: source organism: Francisella tularensis subsp. tularensis FSC198
HLA-C*14:02 = assay: as above; settings: source organism: Francisella tularensis subsp. tularensis FSC198
HLA-C*04:01 = assay: as above; settings: source organism: Francisella tularensis subsp. tularensis FSC198
HLA-B*45:06 = assay: as above; settings: source organism: Francisella tularensis subsp. tularensis FSC198
HLA-C*08:02 = assay: IEDB peptide-MHC binding, purified MHC/direct/fluorescence; filed as Kd, often an IC50 or EC50 that approximates it; ≥ and ≤ were set here for values at or beyond the usual limits of such assays; settings: source organism: Francisella tularensis subsp. tularensis FSC198
HLA-A*80:01 = assay: as above; settings: source organism: Francisella tularensis subsp. holarctica LVS
[12] = source organism: Burkholderia mallei
[13] = source organism: Burkholderia mallei ATCC 23344
[14] = source organism: Zaire ebolavirus
[15] = source organism: Vibrio parahaemolyticus

Sequence: KIDSMFLMT
IC50 (HLA-A*02:01 [1]; source organism: Variola virus): 0.565 µM
IC50 (HLA-A*01:01 [2]; source organism: Variola virus): ≥ 104 µM

Sequence: MMYASWGVH
Kd (HLA-B*46:01; [12]): 3.76 µM
Kd (HLA-B*15:02; [13]): 0.003 µM
Kd (HLA-B*35:01): 2.68 µM
Kd (HLA-B*07:02; [13]): ≥ 20 µM
Kd (HLA-B*15:01 [3]; [12]): 0.0082 µM

IC50 (HLA-A*02:01 [4]; source organism: Homo sapiens): 15 µM
Sequence: SLLDKIIGA

Sequence: SLPKTSGHY
IC50 (HLA-A*02:01 [1]; [14]): ≥ 368 µM
IC50 (HLA-A*11:01 [5]): ≥ 105 µM
IC50 (HLA-A*01:01 [2]; [14]): 37.8 µM
IC50 (HLA-A*24:02): 47.5 µM
IC50 (HLA-A*03:01 [6]): ≥ 91.7 µM
IC50 (HLA-B*15:01 [7]): 4.02 µM

Sequence: VQGYERIMY
Kd (HLA-A*02:01 [8]): ≥ 20 µM
Kd (HLA-A*26:01): ≥ 20 µM
Kd (HLA-B*46:01; [15]): ≥ 20 µM
Kd (HLA-A*11:01 [9]): ≥ 20 µM
Kd (HLA-A*01:01 [10]; [15]): ≥ 20 µM
Kd (HLA-B*08:01): ≥ 20 µM
Kd (HLA-B*27:05): ≥ 20 µM
Kd (HLA-A*31:01): ≥ 20 µM
Kd (HLA-B*40:01): ≥ 20 µM
Kd (HLA-B*15:02; [15]): ≥ 20 µM
Kd (HLA-B*44:02): ≥ 20 µM
Kd (HLA-B*58:01): ≥ 20 µM
Kd (HLA-B*07:02; [15]): ≥ 20 µM
Kd (HLA-A*03:01 [11]): ≥ 20 µM
Kd (HLA-B*15:01 [3]; [15]): 0.271 µM
Kd (HLA-A*69:01): ≥ 20 µM

Sequence: YMDDLYVGSD
IC50 (HLA-A*02:01 [4]; source organism: Human immunodeficiency virus 1): 8 µM

Sequence: YTDKIAMSY
Kd (HLA-B*15:42): ≥ 5 µM
Kd (HLA-B*83:01): ≥ 5 µM
Kd (HLA-C*14:02): 0.0684 µM
Kd (HLA-C*04:01): ≥ 5 µM
Kd (HLA-B*45:06): ≥ 5 µM
Kd (HLA-A*01:01 [10]; source organism: Francisella tularensis subsp. holarctica LVS): ≤ 0.001 µM
Kd (HLA-C*08:02): 0.651 µM
Kd (HLA-A*80:01): 0.0005 µM
